Assay results reported in US8734803.
Numbering of substitutions follows the chain as printed.

B1: plant-produced humanized 2B9 antibody G2K3 (antibody, V domains shown)
VH: QVQLVQSGSELKKPGASVKMSCKAAGYTFTNYWIGWVRQAPGQGLEWIGDIYPENDFSNYNEKFKDRATLTADTSTRTAYMELSSLRSEDTAVYYCVRANEGWYLDVWGQGTTVTVSS
VL: DIQMTQSPSSLSASVGDRVTITCRASENIYSYLAWYQQKPGKAPKLLVYFAKTLAEGVPSRFSGSGSGTEFTLTISSLQPDDFANYYCQHHYGTPYTFGQGTKLEIKR
B2: plant-produced humanized 2B9 antibody G2K4 (antibody, V domains shown)
VH: B1 VH
VL: B1 VL with N85T
B3: plant-produced humanized 2B9 antibody G5K3 (antibody, V domains shown)
VH: B1 VH with M20V, A68V, L70I, R77S
VL: B1 VL
B4: plant-produced humanized 2B9 antibody G5K4 (antibody, V domains shown)
VH: B1 VH with M20V, A68V, L70I, R77S
VL: B1 VL with N85T

The binders below were run against NA (neuraminidase) used in the NA activity inhibition experiments of Example 9 (assay: cell-based or functional assay).
B1 gave an IC50, inhibition of NA activity of 0.5 µg/mL. B2 was tested, and the IC50, inhibition of NA activity was 1.16 µg/mL. In the case of B3, the IC50, inhibition of NA activity is reported as 0.45 µg/mL. For B4, the IC50, inhibition of NA activity was 0.21 µg/mL.
